Test results taken from patent publication US20200347103A1.

Biological target: purified folded MHC-complex (Example 34)
Assay: sandwich ELISA: W6/32 coated, detection with HRP-conjugated rabbit anti-β2m

“W6/32 mouse-anti-HLA-ABC antibody (Dako M0736)” was tested, and the OD450 of wells with MHC complex relative to wells with the negative control β2m was 6 fold.
